Biological target: human α1β1 integrin (human), P56199
Assay: inhibition of adhesion of α1K562 cells to immobilised collagen IV

Chain of human α1β1 integrin (human), P56199 (P56199 29-1179, chain 1 of 2): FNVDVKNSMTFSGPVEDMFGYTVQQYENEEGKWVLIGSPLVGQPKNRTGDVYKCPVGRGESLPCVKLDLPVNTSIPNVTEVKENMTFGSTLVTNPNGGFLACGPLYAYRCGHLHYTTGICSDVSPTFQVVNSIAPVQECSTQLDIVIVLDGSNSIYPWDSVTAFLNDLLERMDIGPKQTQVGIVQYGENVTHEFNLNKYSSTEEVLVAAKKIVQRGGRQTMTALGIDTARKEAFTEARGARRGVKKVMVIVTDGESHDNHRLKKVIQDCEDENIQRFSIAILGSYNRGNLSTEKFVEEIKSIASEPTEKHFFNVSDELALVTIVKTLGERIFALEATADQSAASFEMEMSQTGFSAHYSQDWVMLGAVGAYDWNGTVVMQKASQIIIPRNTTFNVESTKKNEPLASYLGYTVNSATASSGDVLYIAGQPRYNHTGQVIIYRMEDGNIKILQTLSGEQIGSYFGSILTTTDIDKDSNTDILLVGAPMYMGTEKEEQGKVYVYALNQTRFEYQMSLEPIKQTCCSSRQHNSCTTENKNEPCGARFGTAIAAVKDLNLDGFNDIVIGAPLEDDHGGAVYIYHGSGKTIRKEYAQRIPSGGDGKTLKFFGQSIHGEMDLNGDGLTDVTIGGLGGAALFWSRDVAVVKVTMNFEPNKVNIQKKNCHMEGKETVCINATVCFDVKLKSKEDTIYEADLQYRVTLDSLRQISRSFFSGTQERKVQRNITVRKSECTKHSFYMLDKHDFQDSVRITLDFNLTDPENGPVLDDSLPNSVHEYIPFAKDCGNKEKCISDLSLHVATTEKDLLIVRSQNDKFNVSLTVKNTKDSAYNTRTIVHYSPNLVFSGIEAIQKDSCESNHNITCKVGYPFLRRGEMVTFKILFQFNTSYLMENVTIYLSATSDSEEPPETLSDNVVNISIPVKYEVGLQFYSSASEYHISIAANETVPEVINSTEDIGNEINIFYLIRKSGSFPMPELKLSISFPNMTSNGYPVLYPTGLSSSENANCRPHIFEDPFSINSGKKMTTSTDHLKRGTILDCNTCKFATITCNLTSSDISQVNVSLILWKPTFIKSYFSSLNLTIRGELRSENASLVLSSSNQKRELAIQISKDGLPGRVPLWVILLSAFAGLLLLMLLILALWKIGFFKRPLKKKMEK
Chain of human α1β1 integrin (human), P56199 (P05556 21-798, chain 2 of 2, further chain): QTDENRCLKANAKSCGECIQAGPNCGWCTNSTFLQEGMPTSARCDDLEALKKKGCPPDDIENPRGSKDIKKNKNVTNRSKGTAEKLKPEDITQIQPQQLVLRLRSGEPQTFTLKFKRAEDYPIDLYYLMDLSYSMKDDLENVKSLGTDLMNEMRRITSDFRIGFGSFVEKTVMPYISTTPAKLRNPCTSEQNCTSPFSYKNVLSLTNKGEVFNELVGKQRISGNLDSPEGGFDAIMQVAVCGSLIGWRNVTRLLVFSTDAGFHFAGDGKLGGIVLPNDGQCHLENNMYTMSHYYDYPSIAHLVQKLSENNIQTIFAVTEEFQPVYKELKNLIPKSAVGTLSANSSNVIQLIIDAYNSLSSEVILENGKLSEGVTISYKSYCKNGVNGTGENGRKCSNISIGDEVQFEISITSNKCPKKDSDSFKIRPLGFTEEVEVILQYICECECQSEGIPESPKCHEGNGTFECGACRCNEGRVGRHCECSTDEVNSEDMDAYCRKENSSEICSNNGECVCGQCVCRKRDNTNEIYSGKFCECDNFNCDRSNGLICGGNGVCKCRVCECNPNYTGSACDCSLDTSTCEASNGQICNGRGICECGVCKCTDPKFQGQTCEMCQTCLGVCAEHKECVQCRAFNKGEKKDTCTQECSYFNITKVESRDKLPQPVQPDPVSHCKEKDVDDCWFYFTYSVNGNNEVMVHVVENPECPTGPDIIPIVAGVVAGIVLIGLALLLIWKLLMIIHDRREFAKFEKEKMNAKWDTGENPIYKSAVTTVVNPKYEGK

TSLTS (modifications not checked) [synthetic peptide TSLTS (SEQ ID NO: 6)]
IC50: 3.5 mM
